According to US20020115613A1, “Treatment of prostate cancer” (priority 2001, published 2002):

What was measured:
LNCaP cells = settings: cited from earlier work
PC3Neo cells [1] = test: Induction of apoptosis / cell survival (FIG. 1E, 6A); assay type: cell-based
Procedure: (§1) Prostate cancer cell lines, PC3Neo and PC3AR were provided by Dr. K. Burnstein, University of Miami School of Medicine, Miami, Fla. PC3AR cells are a clonal cell line derived by stable transfection of PC3 with a full-length human AR cDNA (Dai, J. L., et al., Steroids, 61, 531-539, 1996). PC3Neo cells were stably transfected with neomycin vector alone. Cells were grown in RPMI 1640 with 5% FBS (Hyclone, Logan, Utah), 100 units/ml penicillin, 100 μg/ml streptomycin, 0.25 μg/ml fungizone and G418 (350 μg/ml) to select for neomycin-resistant cells. In experiments using antiandrogens, cells were maintained in 5% DCC stripped serum for at least 48 hr before treatment with hydroxyflutamide (Sigma Chemical Co., St. Louis, Mo.). The medium and all the drugs were replaced every two days. Cells were treated with 200 ng/ml, 400 ng/ml or 600 ng/ml of TRAIL (Biomol Research Laboratories, Inc, Plymouth Meeting, Pa.) for 2, 4, 6, 8, 16 and 20 hr. Cells were treated with 5 μM hydroxyflutamide for 5 days before the commencement of treatment with 400 ng/ml TRAIL.
Two methods were used to measure induction of apoptosis by drug treatment: the MTT assay and the Apoptosense assay. The MTT assay measures mitochondrial enzyme activity and is indicative of the number of surviving cells. The Apoptosense assay is an ELISA, which utilizes M30 antibody to recognize the C-terminal domain (amino acids 387-396) of cytokeratin 18 that is exposed in apoptotic cells after cleavage by caspases.
Cells were seeded in 96-well plates (6000 cells/well) and treatment was started 24 hr after seeding the cells. After completion of the treatment, cells were incubated at 37° C. with the MTT reagent for 3 hr and processed according to manufacturers instructions (Promega Corporation, Madison, Wis.). Color development was measured at 490 nm on a Spectra MAX 340 microplate reader (Molecular Devices, Menlo Park, Calif.).
To examine the role of NFκB in altered response to TRAIL, its function was blocked by over expressing mutated IκB protein (Kanegae, Y., et al., Nature 392, 611-614, 1998). […]

PC3AR cells = test: Western blotting of death receptors, caspases, Bid, NFκB, XIAP; assay type: cell-based
Procedure: as §1
(§2) Cells were harvested by trypsinization, washed in 1×PBS and cell pellets resuspended in lysis buffer (100 mM Tris-HCl pH 8.0, 0.1% Triton X 100 and protease inhibitor cocktail from Roche Diagnostic Corporation, Indianapolis, Ind.). Cells were incubated over ice for 30 min and centrifuged at 10,000 g at 4° C. for 10 min. The supernatant was collected and the protein concentration estimated using Bio-Rad protein reagent (Bio-Rad Laboratories, Hercules, Calif.).
(§3) Proteins (50 μg, unless stated otherwise) were separated on NuPAGE 10% Bis-Tris gels (Novex pre-cast mini gels, InVitrogen, Carlsbad, Calif.) at 100 volts for 1 hour in the presence of 1×MES-SDS running buffer (InVitrogen, Carlsbad, Calif.). Separated proteins were transferred to (PVDF) membranes (Bio-Rad Laboratories, Hercules, Calif.) at 42 volts for 2.5 hr using a Novex XCell II blotting apparatus in MES transfer buffer in the presence of NuPAGE antioxidant. Transfer of the proteins to the polyvinylidene difluoride (PVDF) membrane was confirmed by staining with Ponceau S (Sigma, St. Louis, Mo.). The blots were blocked in 5% non-fat dry milk in TBS, washed twice for 10 min each with TBS containing 0.1% Tween-20 and incubated for 2 hr at RT with primary antibody diluted in TBS containing 0.5% milk.
(§4) The following antibodies were used in the immunoblots: DR4, DR5 and cytochrome c (Imgenex, San Diego, Calif.), BID (BioSource International, Camarillo, Calif.), caspases-8, -9, and Akt (Cell Signaling Technology, Beverely, Mass.), caspase-3 (BD Pharmingen, San Diego, Calif.) Iκβ and XIAP (Cell Signaling Technology, Beverly, Mass.), cFLIP (StressGen Biotechnology Corp, Victoria, Canada), actin (Sigma Chemical Co., St. Louis, Mo.) and Cox II (Molecular Probes, Eugene, Oreg.). Immunoreactive bands were visualized using ECL detection system (Amersham, Pharmacia Biotech, Arlington Heights, Ill.) and signals were developed after exposure to X-ray film (X-Omat films, Eastman Kodak Company, Rochester, N.Y.).
(§5) For separation of mitochondrial and cytosolic fractions, cells were trypsinized, centrifuged at 600 g for 10 min at 4° C., washed twice in ice-cold PBS and re-suspended in buffer A (20 mM HEPES-KOH, pH 7.2, 10 mM KCl, 1.5 mM MgC12, 1 mM sodium-EDTA, 1 mM sodium-EGTA, 250 mM sucrose and protease inhibitor cocktail). Cells were homogenized on ice with a glass Dounce homogenizer (30 strokes) and were centrifuged at 750 g for 5 min at 4° C. The supernatant was centrifuged for 15 min at 10,000 g at 4° C. to pellet mitochondria, which was washed and resuspended in lysis buffer. The supernatant was centrifuged at 100,000 g for 60 min at 4° C. and S-100 cytosol was collected. […]

PC3Neo cells [2] = test: as above; assay type: cell-based
Procedure: as §1, §2, §3, §4, §5

[3] = 400 ng/ml TRAIL, by 2 hr, FIG. 2C

## CC#C[C@]1(O)CC[C@H]2[C@@H]3CCC4=CC(=O)CCC4=C3[C@@H](c3ccc(N(C)C)cc3)C[C@@]21C [Mifepristone]
LNCaP cells
  induction of tBid (Sridhar et al., 2001): weakly induced

B1: Tumor necrosis factor α—Related Apoptosis Inducing Ligand (protein, UniProt P50591 1-281, looked up)
Tumor necrosis factor ligand …: MAMMEVQGGPSLGQTCVLIVIFTVLLQSLCVAVTYVYFTNELKQMQDKYSKSGIACFLKEDDSYWDPNDEESMNSPCWQVKWQLRQLVRKMILRTSEETISTVQEKQQNISPLVRERGPQRVAAHITGTRGRSNTLSSPNSKNEKALGRKINSWESSRSGHSFLSNLHLRNGELVIHEKGFYYIYSQTYFRFQEEIKENTKNDKQMVQYIYKYTSYPDPILLMKSARNSCWSKDAEYGLYSIYQGGIFELKENDRIFVSVTNEHLIDMDHEASFFGAFLVG
notes: 281 amino acid type II transmembrane protein of the tumor necrosis factor α family; purchased from Biomol
PC3Neo cells [1]; 200 ng/ml TRAIL
  apoptotic response at 200 ng/ml: lower response
PC3Neo cells [1]; 400 ng/ml TRAIL, by 20 hr, FIG. 1E
  death of cells (apoptosis): ~18%
PC3Neo cells [1]; 600 ng/ml TRAIL
  apoptosis at higher dose: did not significantly increase apoptosis
PC3AR cells; [3]
  increase in expression of DR5: ~5 fold
PC3AR cells; 400 ng/ml TRAIL, by 16 hr, FIG. 2C
  increase in expression of DR5 (peak): ~8 fold
PC3AR cells; TRAIL treatment
  DcR2 expression: did not significantly alter DcR2 expression
PC3AR cells; TRAIL-treated
  DR4 levels: increased
PC3AR cells; by 4 hr, lasted until 16 hr
  cleaved caspase-9: significant levels of cleaved caspase-9 were detected
PC3AR cells; mitochondrial fraction, not shown
  tBid in mitochondria: translocated into mitochondria within 2 hours
PC3AR cells; not shown
  XIAP levels: did not alter XIAP levels significantly
  cleaved caspase-3 (p17): present in both cell lines as early as 2 hr
  expression of NFκB: increased the expression of NFκB levels
  mature p12 caspase-3 product: noted only in PC3AR
  tBid expression: detected up to 8 hr of treatment
PC3AR cells; within 2 hr, not shown
  cleavage of procaspase-8: induced cleavage of procaspase-8
PC3Neo cells [2]
  activated caspase-9: not detected
PC3Neo cells [2]; [3]
  increase in expression of DR5: ~2 fold
PC3Neo cells [2]; TRAIL treatment
  DcR2 expression: did not significantly alter DcR2 expression
PC3Neo cells [2]; TRAIL-treated
  DR4 levels: did not show significant changes
PC3Neo cells [2]; by 4 hr of TRAIL treatment, not shown
  tBid expression: little tBid was present
PC3Neo cells [2]; mitochondrial fraction, highest level by 2 hr, not shown
  tBid in mitochondria: significantly lower than that seen in PC3AR cells
PC3Neo cells [2]; not shown
  XIAP levels: did not alter XIAP levels significantly
  cleaved caspase-3 (p17): present in both cell lines as early as 2 hr
  expression of NFκB: increased the expression of NFκB levels
  mature p12 caspase-3 product: noted only in PC3AR
PC3Neo cells [2]; within 2 hr, not shown
  cleavage of procaspase-8: induced cleavage of procaspase-8
